Laboratory results from US20060019915A1, “Method to modulate the immune system with a novel guanine nucleotide exchange factor” (priority 2004, published 2006).

What was measured:
Rac1 = molecular target: T1, Rac1 (Homo sapiens, UniProt P63000); assay: In vitro GDP release assay (filter-binding) on Rac1; format: biochemical; details: for dissociation of [3H]GDP from Rac1 (GEF activity): purified GST-IBP fusion protein, 4 pmol, [3H]GDP-loaded GST-Rac1
T1 construct: purchased Calbiochem-Novabiochem; host or cells: bacteria
Protocol: A-C, stimulation of GDP dissociation from Rho GTPases by wild-type or mutant IBP proteins. [^3H]GDP-loaded Rac1 (A), Cdc42 (B), or RhoA (C) was incubated with GST alone or with either wild-type or mutant GST-IBP fusion proteins, as indicated. The exchange reactions were stopped at the indicated time points, and the amount of [^3H]GDP remaining bound to the GTPases was then measured by filtering the quenched reaction samples over nitrocellulose membranes followed by scintillation counting of the membrane-bound radioactivity. The percentage of [^3H]GDP remaining bound at each time point was evaluated relative to the amount of radioactivity remaining at time 0 of the respective reaction, which was set to 100% in each experiment. The results shown are representative of at least three independent assays. D, regulation of IBP GEF activity by Lck and PI(3,4,5)P3. [^3H]GDP-loaded Rac1 was incubated with Lck-phosphorylated wild-type HA-IBP (IBP+Lck) in the presence or absence of PI(3,4,5)P3 (1 μM) for 0 or 40 min. Reactions without IBP (Lck and Lck^+ PI(3,4,5)P3) were simultaneously carried out as control. The exchange reactions were then stopped, and the amount of [^3H]GDP remaining bound to Rac1 was measured by filter-binding method as described for A-C. The percentage of [^3H]GDP remaining bound after incubation for 40 min was evaluated relative to the amount of radioactivity remaining at time 0 of the respective reaction, which was set to 100% in each experiment. The results shown are representative of at least three independent assays.
The in vitro GDP release assays were carried out by filter-binding method as described previously (28-31). To prepare [3H]GDP-loaded GTPases, 40 pmol of bacterially expressed and purified GST-Rac1, GST-Cdc42, or His-RhoA (Calbiochem-Novabiochem) was incubated with 1 μM [3H]GDP in 100 μl of a binding buffer (10 mM HEPES, pH 7.5, 100 mM NaCl, 5 mM MgCl2, 1 mM EGTA, 1 mM dithiothreitol, 50 μg/ml bovine serum albumin) for 60 min at 30° C. The nucleotide exchange reaction was initiated by adding 100 μM nonradioactive GTP and 4 pmol of purified GST alone or GST-IBP fusion proteins (or when appropriate, 4 pmol of purified wild-type HA-IBP either non-phosphorylated or in vitro phosphorylated by purified Lck and cold ATP) to the [3H]GDP-loaded GTPase and then equally splitting and incubating the reaction mixture for the indicated time periods at room temperature. […] The amount of [3H]GDP remaining bound to the GTPases was determined by filtering the quenched reaction samples over nitrocellulose membranes followed by extensive washing of the filters and then quantification of the membrane-bound radioactivity by scintillation counting.

Cdc42 = molecular target: T2, Cdc42 (Homo sapiens, UniProt P60953); assay: In vitro GDP release assay (filter-binding) on Cdc42; format: biochemical; details: purified GST-IBP fusion protein, 4 pmol; [3H]GDP-loaded GST-Cdc42
T2 construct: purchased Calbiochem-Novabiochem; host or cells: bacteria
T2 sequence (P60953 whole entry, species assumed, the tested form may be a part): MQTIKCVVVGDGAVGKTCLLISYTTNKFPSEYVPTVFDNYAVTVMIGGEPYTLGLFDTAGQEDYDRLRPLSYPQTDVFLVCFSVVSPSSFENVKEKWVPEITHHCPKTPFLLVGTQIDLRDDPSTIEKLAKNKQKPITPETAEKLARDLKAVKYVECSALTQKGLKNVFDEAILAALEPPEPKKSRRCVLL
Protocol: A-C, stimulation of GDP dissociation from Rho GTPases by wild-type or mutant IBP proteins. [^3H]GDP-loaded Rac1 (A), Cdc42 (B), or RhoA (C) was incubated with GST alone or with either wild-type or mutant GST-IBP fusion proteins, as indicated. The exchange reactions were stopped at the indicated time points, and the amount of [^3H]GDP remaining bound to the GTPases was then measured by filtering the quenched reaction samples over nitrocellulose membranes followed by scintillation counting of the membrane-bound radioactivity. The percentage of [^3H]GDP remaining bound at each time point was evaluated relative to the amount of radioactivity remaining at time 0 of the respective reaction, which was set to 100% in each experiment. The results shown are representative of at least three independent assays. D, regulation of IBP GEF activity by Lck and PI(3,4,5)P3. [^3H]GDP-loaded Rac1 was incubated with Lck-phosphorylated wild-type HA-IBP (IBP+Lck) in the presence or absence of PI(3,4,5)P3 (1 μM) for 0 or 40 min. […] The exchange reactions were then stopped, and the amount of [^3H]GDP remaining bound to Rac1 was measured by filter-binding method as described for A-C. The percentage of [^3H]GDP remaining bound after incubation for 40 min was evaluated relative to the amount of radioactivity remaining at time 0 of the respective reaction, which was set to 100% in each experiment. […]

Molecule	ability of wild-type IBP to promote GDP-GTP exchange on Rac1 after phosphorylation by Lck (Rac1; purified HA-IBP phosphorylated in vitro by purified Lck, 40 min)	GEF activity of Lck-phosphorylated wild-type IBP on Rac1 on addition of PI(3,4,5)P3 (Rac1; PI(3,4,5)P3 1 μM, 40 min)	dissociation of [3H]GDP from Cdc42 (GEF activity) (Cdc42)	dissociation of [3H]GDP from Rac1 (GEF activity) (Rac1)
Lck: purified Lck kinase, Src family protein tyrosine kinase, used to phosphorylate IBP in vitro	enhanced ability	–	–	–
phosphatidylinositol 3,4,5-triphosphate [PI(3,4,5)P3, reference compound]	–	stimulated	–	–
wild-type IBP: purified recombinant full-length human IBP (IRF-4 Binding Protein), GST fusion or HA-tagged	–	–	did not stimulate the dissociation	did not stimulate the dissociation
IBP 313-631: IBP mutant containing the putative DH domain alone, GST fusion protein (protein, UniProt Q9H4E7 313-631, looked up, fragment, GST fusion, IBP mutant containing the putative DH domain alone, GST fusion protein) LQAEGKTSLHKDLKQKRREQREQRERRRAAKEEELLRLQQLQEEKERKLQELELLQEAQRQAERLLQEEEERRRSQHRELQQALEGQLREAEQARASMQAEMELKEEEAARQRQRIKELEEMQQRLQEALQLEVKARRDEESVRIAQTRLLEEEEEKLKQLMQLKEEQERYIERAQQEKEELQQEMAQQSRSLQQAQQQLEEVRQNRQRADEDVEAAQRKLRQASTNVKHWNVQMNRLMHPIEPGDKRPVTSSSFSGFQPPLLAHRDSSLKRLTRWGSQGNRTPSPNSNEQQKSLNGGDEAPAPASTPQEDKLDPAPEN	–	–	stimulated rapid GDP dissociation	stimulated rapid GDP dissociation
